The source of these data is US20190323037, “REPLICATIVE TRANSPOSON SYSTEM” (HORIZON DISCOVERY LIMITED, published 2019).

The target of data set [1] is T1, Helraiser transposase (RepHel, Helitron) (Myotis lucifugus).
T1 chain: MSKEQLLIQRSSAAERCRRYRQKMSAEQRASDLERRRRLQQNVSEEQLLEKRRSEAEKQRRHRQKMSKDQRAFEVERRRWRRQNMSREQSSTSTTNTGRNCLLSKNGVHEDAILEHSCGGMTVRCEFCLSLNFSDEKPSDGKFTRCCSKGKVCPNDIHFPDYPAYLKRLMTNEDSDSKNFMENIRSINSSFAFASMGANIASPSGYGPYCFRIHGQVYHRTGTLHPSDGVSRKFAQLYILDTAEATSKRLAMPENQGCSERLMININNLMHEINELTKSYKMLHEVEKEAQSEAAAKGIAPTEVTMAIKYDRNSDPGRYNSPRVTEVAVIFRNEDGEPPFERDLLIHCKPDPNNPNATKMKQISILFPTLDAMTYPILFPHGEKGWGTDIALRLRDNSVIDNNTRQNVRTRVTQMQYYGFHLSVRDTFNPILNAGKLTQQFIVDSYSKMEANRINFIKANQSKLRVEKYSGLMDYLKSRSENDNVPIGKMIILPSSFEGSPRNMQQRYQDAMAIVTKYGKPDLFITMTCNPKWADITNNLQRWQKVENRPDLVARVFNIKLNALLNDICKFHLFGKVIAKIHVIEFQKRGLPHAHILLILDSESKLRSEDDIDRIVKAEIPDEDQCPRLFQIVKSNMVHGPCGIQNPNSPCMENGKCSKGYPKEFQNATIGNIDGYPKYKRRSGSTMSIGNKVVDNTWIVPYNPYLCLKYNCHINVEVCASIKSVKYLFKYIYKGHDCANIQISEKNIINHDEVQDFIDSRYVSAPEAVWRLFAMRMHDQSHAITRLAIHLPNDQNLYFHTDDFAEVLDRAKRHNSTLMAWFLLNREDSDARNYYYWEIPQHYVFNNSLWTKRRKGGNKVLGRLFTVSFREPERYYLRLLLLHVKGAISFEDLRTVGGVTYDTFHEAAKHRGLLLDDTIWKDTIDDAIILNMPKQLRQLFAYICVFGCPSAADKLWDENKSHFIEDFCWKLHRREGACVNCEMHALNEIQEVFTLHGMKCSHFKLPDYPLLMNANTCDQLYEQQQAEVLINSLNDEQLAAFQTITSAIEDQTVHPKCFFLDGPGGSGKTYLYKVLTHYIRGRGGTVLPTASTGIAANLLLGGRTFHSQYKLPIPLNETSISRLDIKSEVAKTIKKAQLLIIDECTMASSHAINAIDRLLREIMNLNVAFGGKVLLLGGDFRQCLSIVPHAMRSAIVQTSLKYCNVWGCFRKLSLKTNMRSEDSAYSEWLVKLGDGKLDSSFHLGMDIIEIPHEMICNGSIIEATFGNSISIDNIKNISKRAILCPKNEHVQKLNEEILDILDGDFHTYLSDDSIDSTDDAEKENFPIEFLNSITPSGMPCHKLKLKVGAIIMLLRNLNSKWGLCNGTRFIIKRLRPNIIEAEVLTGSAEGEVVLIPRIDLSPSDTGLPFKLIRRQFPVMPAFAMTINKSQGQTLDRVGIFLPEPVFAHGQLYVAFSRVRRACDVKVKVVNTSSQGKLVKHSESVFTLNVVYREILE
The data set is described as follows: EMSA; 10 mM MgCl2, 100 mM NaCl, pH 7.5, RT; 50 nM oligo; text says cleavage-assay oligonucleotides. The settings on record: tags: His tag (pFastBac HT-A), TEV-cleaved; insect cells; label: 6-FAM. Here is the method:
(§1) Binding of the Helraiser transposase to various DNA oligonucleotides was measured by EMSA using 6% TBE gels (Invitrogen). Purified protein at 15 nM-150 nM was incubated for 30 min at room temperature in binding buffer (50 mM Tris pH 7.5, 100 mM NaCl, 10 mM MgCl₂, 0.5 mM ETDA, 1 mM TCEP) with 50 nM 6-FAM labeled oligonucleotides. After addition of DNA gel loading solution (Quality Biological, INC), samples were run on 6% TBE gels and visualized.

The target of data set [2] is T1, Helraiser transposase (RepHel, Helitron). The experiment in a line: EMSA; text says cleavage-assay oligonucleotides bound. The settings on record: tags: His tag (pFastBac HT-A), TEV-cleaved, insect cells, label: 6-FAM. Here is the method:
as §1

B1: Helraiser LTS substrate (+), top strand (ssDNA)
DNA: CACCATATGATCCTATATAATAAAAGAGAAACATGCAAATTGACCATCCC
B1: the binding result in data set [1] was “binds”.

B2: Helraiser LTS substrate (-), bottom strand (ssDNA)
DNA: GGGATGGTCAATTTGCATGTTTCTCTTTTATTATATAGGATCATATGGTG
modifications: [NONE]
As to B2, the binding result in data set [2] was “binds”.

B3: Helraiser RTS substrate (-), bottom strand (ssDNA)
DNA: TATATATATACTAGTGGCCCGGTGCACGAAATTCGTGCACATTGAAAGGG
modifications: [NONE]
On to B3, for which, in data set [2], the binding result was “binds”.

B4: Helraiser RTS substrate (+), top strand (ssDNA)
DNA: CCCTTTCAATGTGCACGAATTTCGTGCACCGGGCCACTAGTATATATATA
For B4, in data set [2] (potential hairpin (19-nt palindrome)), the binding result is recorded as “binds”.
